Molecular target: CSL (RBPJ) (Mus musculus) (UniProt P31266)
Experiment: ITC
Conditions: text: measurable, albeit weak, binding; ITC: 50 mM sodium phosphate pH 6.5, 150 mM NaCl, 10 C (10 uM CSL in cell, 100 uM DNA in syringe). EMSA: 150 mM KCl, 50 mM Tris pH 7.4, 1 mM DTT, 2% polyvinyl …

Chain of CSL (RBPJ) (Mus musculus) (P31266 53-474): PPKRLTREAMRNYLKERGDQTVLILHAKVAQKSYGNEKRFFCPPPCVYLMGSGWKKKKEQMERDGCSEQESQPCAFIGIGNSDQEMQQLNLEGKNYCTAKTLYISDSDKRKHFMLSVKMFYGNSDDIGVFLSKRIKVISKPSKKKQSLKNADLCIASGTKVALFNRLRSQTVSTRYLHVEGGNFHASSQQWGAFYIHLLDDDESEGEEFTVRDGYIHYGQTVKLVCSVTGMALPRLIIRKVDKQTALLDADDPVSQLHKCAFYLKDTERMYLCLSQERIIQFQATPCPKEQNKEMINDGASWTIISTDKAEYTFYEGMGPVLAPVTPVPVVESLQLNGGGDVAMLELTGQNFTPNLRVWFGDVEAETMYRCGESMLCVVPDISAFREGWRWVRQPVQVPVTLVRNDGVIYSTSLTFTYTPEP

ITC duplex CGTGAAAA
Kd: > 50 µM

Reference: article PMC4176381
